Laboratory results taken from patent publication US20190144529A1 (UCB, published 2019).
Changes are numbered by the printed parent chain. Read-outs that look alike come from different tables or passages of the source. Values belong to the binder of their own block, whether it stands above or below them.

What was measured:
Assay in all cases: SPR, Fab captured; albumin taken as HSA
human serum albumin [1] = molecular target: T1, human serum albumin (human, UniProt P02768 25-609)
T1 construct: mature; Bought purified serum albumin; also called HSA; Human albumin
Protocol: (§1) Each assay cycle consisted of firstly capturing the antibody sample using a 1 min injection, before an association phase consisting of a 3 min injection of albumin, after which dissociation was monitored. After each cycle, the capture surface was regenerated with two 1 min injections of 40 mM HCl followed by 30 s of 5 mM NaOH. The flow rates used were 10 μl/min for capture, 30 μl/min for both the association and dissociation phases, and 10 μl/min for regeneration. A blank flow-cell was used for reference subtraction and buffer-blank injections were included to subtract instrument noise and drift.

human serum albumin [2] = molecular target: T1, human serum albumin; remark: listed apart in the source
Protocol: as §1

human serum albumin [3] = molecular target: T1, human serum albumin; remark: listed apart in the source
Protocol: as §1

B1: CA645 gL4gH27 Fab (Fab, V domains shown)
VH: EVQLLESGGGLVQPGGSLRLSCAVSGIDLSNYAINWVRQAPGKGLEWIGIIWGSGTTFYATWAKGRFTISRDNSKNTVYLQMNSLRAEDTAVYYCARTVPGYSTAPYFDLWGQGTLVTVSS
VL: DIQMTQSPSSVSASVGDRVTITCQSSPSVWSNFLSWYQQKPGKAPKLLIYEASKLTSGVPSRFSGSGSGTDFTLTISSLQPEDFATYYCGGGYSSISDTTFGGGTKVEIK
notes: Fab: human gamma1 CH1, human kappa (Km3); Kabat numbering
- Kd (human serum albumin [1]): 1.73 nM
- koff (human serum albumin [1]): 8.4e-05 s⁻¹
- kon (human serum albumin [1]): 48300 M⁻¹ s⁻¹

B2: CA645 gL4gH46 Fab (Fab, V domains shown)
VH: B1 VH with G53A, V99Y
VL: B1 VL
notes: as for B1
- Kd (human serum albumin [2]): 3.26 nM
- koff (human serum albumin [2]): 0.000184 s⁻¹
- kon (human serum albumin [2]): 56400 M⁻¹ s⁻¹

B3: CA645 gL4gH30 Fab (Fab, V domains shown)
VH: B1 VH with G53T
VL: B1 VL
notes: as for B1
- Kd (human serum albumin [1]): 23.2 nM
- koff (human serum albumin [1]): 0.00102 s⁻¹
- kon (human serum albumin [1]): 43800 M⁻¹ s⁻¹

B4: CA645 gL4gH41 Fab (Fab, V domains shown)
VH: B1 VH with G53A, G101D
VL: B1 VL
notes: as for B1
- Kd (human serum albumin [1]): 6.54 nM
- koff (human serum albumin [1]): 0.000351 s⁻¹
- kon (human serum albumin [1]): 53700 M⁻¹ s⁻¹

B5: CA645 gL4gH28 Fab (Fab, V domains shown)
VH: B1 VH with G53V
VL: B1 VL
notes: as for B1
- Kd (human serum albumin [1]): 10.6 nM
- koff (human serum albumin [1]): 0.000515 s⁻¹
- kon (human serum albumin [1]): 48500 M⁻¹ s⁻¹

B7: CA645 gL11gH5 Fab (Fab, V domains shown)
VH: B1 VH with G53A
VL: B1 VL with S28N
notes: as for B1
- Kd (human serum albumin [2]): 4.42 nM
- koff (human serum albumin [2]): 0.000249 s⁻¹
- kon (human serum albumin [2]): 56400 M⁻¹ s⁻¹

B8: CA645 gL4gH39 Fab (Fab, V domains shown)
VH: B1 VH with G53A, G101I
VL: B1 VL
notes: as for B1
- Kd (human serum albumin [1]): 14 nM
- koff (human serum albumin [1]): 0.00075 s⁻¹
- kon (human serum albumin [1]): 53500 M⁻¹ s⁻¹

B9: CA645 gL4gH43 Fab (Fab, V domains shown)
VH: B1 VH with G53A, G101E
VL: B1 VL
notes: as for B1
- Kd (human serum albumin [1]): 7.39 nM
- koff (human serum albumin [1]): 0.000391 s⁻¹
- kon (human serum albumin [1]): 52900 M⁻¹ s⁻¹

B11: CA645 gL14gH5 Fab (Fab, V domains shown)
VH: B1 VH with G53A
VL: B1 VL with S28L
notes: as for B1
- Kd (human serum albumin [1]): 1.51 nM
- koff (human serum albumin [1]): 8.7e-05 s⁻¹
- kon (human serum albumin [1]): 57700 M⁻¹ s⁻¹

B12: CA645 gL4gH34 Fab (Fab, V domains shown)
VH: B1 VH with G53A, S54Q
VL: B1 VL
notes: as for B1
- Kd (human serum albumin [3]): 11 nM
- koff (human serum albumin [3]): 0.000422 s⁻¹
- kon (human serum albumin [3]): 38500 M⁻¹ s⁻¹

B16: CA645 gL12gH5 Fab (Fab, V domains shown)
VH: B1 VH with G53A
VL: B1 VL with S28D
notes: as for B1
- Kd (human serum albumin [1]): 1.88 nM
- koff (human serum albumin [1]): 0.000104 s⁻¹
- kon (human serum albumin [1]): 55400 M⁻¹ s⁻¹

B17: CA645 gL16gH5 Fab (Fab, V domains shown)
VH: B1 VH with G53A
VL: B1 VL with S31W
notes: as for B1
- Kd (human serum albumin [3]): 3.06 nM
- koff (human serum albumin [3]): 0.000169 s⁻¹
- kon (human serum albumin [3]): 55300 M⁻¹ s⁻¹

B18: CA645 gL4gH38 Fab (Fab, V domains shown)
VH: B1 VH with G53A, F58Y
VL: B1 VL
notes: as for B1
- Kd (human serum albumin [1]): 12.2 nM
- koff (human serum albumin [1]): 0.000581 s⁻¹
- kon (human serum albumin [1]): 47500 M⁻¹ s⁻¹

B19: CA645 gL4gH45 Fab (Fab, V domains shown)
VH: B1 VH with G53A, G101V
VL: B1 VL
notes: as for B1
- Kd (human serum albumin [1]): 8.25 nM
- koff (human serum albumin [1]): 0.000444 s⁻¹
- kon (human serum albumin [1]): 53800 M⁻¹ s⁻¹

B20: CA645 gL4gH35 Fab (Fab, V domains shown)
VH: B1 VH with G53A, S54E
VL: B1 VL
notes: as for B1
- Kd (human serum albumin [3]): 15.1 nM
- koff (human serum albumin [3]): 0.000399 s⁻¹
- kon (human serum albumin [3]): 26500 M⁻¹ s⁻¹

B21: CA645 gL4gH40 Fab (Fab, V domains shown)
VH: B1 VH with G53A, G101T
VL: B1 VL
notes: as for B1
- Kd (human serum albumin [1]): 6.4 nM
- koff (human serum albumin [1]): 0.000356 s⁻¹
- kon (human serum albumin [1]): 55600 M⁻¹ s⁻¹

B22: CA645 gL10gH5 Fab (Fab, V domains shown)
VH: B1 VH with G53A
VL: B1 VL with S28A
notes: as for B1
- Kd (human serum albumin [1]): 1.03 nM
- koff (human serum albumin [1]): 0.000172 s⁻¹
- kon (human serum albumin [1]): 138000 M⁻¹ s⁻¹

B24: CA645 gL4gH31 Fab (Fab, V domains shown)
VH: B1 VH with G53A, S54V
VL: B1 VL
notes: as for B1
- Kd (human serum albumin [3]): 4.18 nM
- koff (human serum albumin [3]): 0.000167 s⁻¹
- kon (human serum albumin [3]): 40000 M⁻¹ s⁻¹

B26: CA645 gL4gH33 Fab (Fab, V domains shown)
VH: B1 VH with G53A, S54L
VL: B1 VL
notes: as for B1
- Kd (human serum albumin [3]): 6.18 nM
- koff (human serum albumin [3]): 0.00024 s⁻¹
- kon (human serum albumin [3]): 38900 M⁻¹ s⁻¹

B28: CA645 gL15gH5 Fab (Fab, V domains shown)
VH: B1 VH with G53A
VL: B1 VL with S31R
notes: as for B1
- Kd (human serum albumin [3]): 4.62 nM
- koff (human serum albumin [3]): 0.000277 s⁻¹
- kon (human serum albumin [3]): 60100 M⁻¹ s⁻¹

B30: CA645 gL4gH44 Fab (Fab, V domains shown)
VH: B1 VH with G53A, G101L
VL: B1 VL
notes: as for B1
- Kd (human serum albumin [1]): 4.22 nM
- koff (human serum albumin [1]): 0.000226 s⁻¹
- kon (human serum albumin [1]): 53500 M⁻¹ s⁻¹

B31: CA645 gL4gH42 Fab (Fab, V domains shown)
VH: B1 VH with G53A, G101Q
VL: B1 VL
notes: as for B1
- Kd (human serum albumin [1]): 4.17 nM
- koff (human serum albumin [1]): 0.000222 s⁻¹
- kon (human serum albumin [1]): 53100 M⁻¹ s⁻¹

B33: CA645 gL4gH29 Fab (Fab, V domains shown)
VH: B1 VH with G53S
VL: B1 VL
notes: as for B1
- Kd (human serum albumin [1]): 7.97 nM
- koff (human serum albumin [1]): 0.00038 s⁻¹
- kon (human serum albumin [1]): 47700 M⁻¹ s⁻¹

B35: CA645 gL4gH32 Fab (Fab, V domains shown)
VH: B1 VH with G53A, S54I
VL: B1 VL
notes: as for B1
- Kd (human serum albumin [3]): 4.38 nM
- koff (human serum albumin [3]): 0.000169 s⁻¹
- kon (human serum albumin [3]): 38600 M⁻¹ s⁻¹

B38: CA645 gL13gH5 Fab (Fab, V domains shown)
VH: B1 VH with G53A
VL: B1 VL with S28I
notes: as for B1
- Kd (human serum albumin [1]): 1.88 nM
- koff (human serum albumin [1]): 0.000108 s⁻¹
- kon (human serum albumin [1]): 57600 M⁻¹ s⁻¹

Results, then the binder that gave them:

- Kd (human serum albumin [3]): 5.5 nM
- koff (human serum albumin [3]): 0.000323 s⁻¹
- kon (human serum albumin [3]): 58800 M⁻¹ s⁻¹
B6: CA645 gL17gH5 Fab (Fab, V domains shown)
VH: B1 VH with G53A
VL: B1 VL with S31N
notes: as for B1

- Kd (human serum albumin [3]): 3.85 nM
- koff (human serum albumin [3]): 0.000217 s⁻¹
- kon (human serum albumin [3]): 56200 M⁻¹ s⁻¹
B10: CA645 gL25gH5 Fab (Fab, V domains shown)
VH: B1 VH with G53A
VL: B1 VL with S31F
notes: as for B1

- Kd (human serum albumin [3]): 14.3 nM
- koff (human serum albumin [3]): 0.000794 s⁻¹
- kon (human serum albumin [3]): 55500 M⁻¹ s⁻¹
B13: CA645 gL20gH5 Fab (Fab, V domains shown)
VH: B1 VH with G53A
VL: B1 VL with S31Q
notes: as for B1

- Kd (human serum albumin [3]): 14.8 nM
- koff (human serum albumin [3]): 0.000814 s⁻¹
- kon (human serum albumin [3]): 54900 M⁻¹ s⁻¹
B14: CA645 gL23gH5 Fab (Fab, V domains shown)
VH: B1 VH with G53A
VL: B1 VL with S31L
notes: as for B1

- Kd (human serum albumin [3]): 6.34 nM
- koff (human serum albumin [3]): 0.000323 s⁻¹
- kon (human serum albumin [3]): 51000 M⁻¹ s⁻¹
B15: CA645 gL21gH5 Fab (Fab, V domains shown)
VH: B1 VH with G53A
VL: B1 VL with S31E
notes: as for B1

- Kd (human serum albumin [3]): 16.1 nM
- koff (human serum albumin [3]): 0.000883 s⁻¹
- kon (human serum albumin [3]): 54700 M⁻¹ s⁻¹
B23: CA645 gL24gH5 Fab (Fab, V domains shown)
VH: B1 VH with G53A
VL: B1 VL with S31V
notes: as for B1

- Kd (human serum albumin [3]): 8.58 nM
- koff (human serum albumin [3]): 0.000478 s⁻¹
- kon (human serum albumin [3]): 55700 M⁻¹ s⁻¹
B25: CA645 gL22gH5 Fab (Fab, V domains shown)
VH: B1 VH with G53A
VL: B1 VL with S31H
notes: as for B1

- Kd (human serum albumin [1]): 9.44 nM
- koff (human serum albumin [1]): 0.000586 s⁻¹
- kon (human serum albumin [1]): 62100 M⁻¹ s⁻¹
B27: CA645 gL27gH5 Fab (Fab, V domains shown)
VH: B1 VH with G53A
VL: B1 VL with F33Y
notes: as for B1

- Kd (human serum albumin [3]): 4.13 nM
- koff (human serum albumin [3]): 0.000248 s⁻¹
- kon (human serum albumin [3]): 60100 M⁻¹ s⁻¹
B29: CA645 gL26gH5 Fab (Fab, V domains shown)
VH: B1 VH with G53A
VL: B1 VL with S31Y
notes: as for B1

- Kd (human serum albumin [1]): 3.41 nM
- koff (human serum albumin [1]): 0.00019 s⁻¹
- kon (human serum albumin [1]): 55800 M⁻¹ s⁻¹
B32: CA645 gL34gH5 Fab (Fab, V domains shown)
VH: B1 VH with G53A
VL: B1 VL with S94T
notes: as for B1

- Kd (human serum albumin [3]): 5 nM
- koff (human serum albumin [3]): 0.00026 s⁻¹
- kon (human serum albumin [3]): 52000 M⁻¹ s⁻¹
B34: CA645 gL19gH5 Fab (Fab, V domains shown)
VH: B1 VH with G53A
VL: B1 VL with S31D
notes: as for B1

- Kd (human serum albumin [1]): 5.57 nM
- koff (human serum albumin [1]): 0.00029 s⁻¹
- kon (human serum albumin [1]): 52100 M⁻¹ s⁻¹
B36: CA645 gL35gH5 Fab (Fab, V domains shown)
VH: B1 VH with G53A
VL: B1 VL with S94V
notes: as for B1

- Kd (human serum albumin [3]): 15.5 nM
- koff (human serum albumin [3]): 0.000823 s⁻¹
- kon (human serum albumin [3]): 53200 M⁻¹ s⁻¹
B37: CA645 gL18gH5 Fab (Fab, V domains shown)
VH: B1 VH with G53A
VL: B1 VL with S31I
notes: as for B1
